Experimental data from PMC11268888.

Legend:
Test in all cases: SPR; […]; HBS-EP (10 mM HEPES pH 7.4, 150 mM NaCl, 3 mM EDTA, 0.005% Surfactant P20); […]
[1] = molecular target: ectodomain (head domain) of CDV-H, 5VD wild-type strain (canine distemper virus (5VD wild-type strain))
[2] = molecular target: soluble head domain of CDV-H (canine distemper virus hemagglutinin), Kyoto Biken vaccine strain, made in HEK293T cells (canine distemper virus (Kyoto Biken vaccine strain))
[3] = molecular target: MeV-H (measles virus hemagglutinin), vaccine strain (measles virus)

ectodomain of human Nectin-4 (residues 1-333), sequence (Q96NY8 32-333): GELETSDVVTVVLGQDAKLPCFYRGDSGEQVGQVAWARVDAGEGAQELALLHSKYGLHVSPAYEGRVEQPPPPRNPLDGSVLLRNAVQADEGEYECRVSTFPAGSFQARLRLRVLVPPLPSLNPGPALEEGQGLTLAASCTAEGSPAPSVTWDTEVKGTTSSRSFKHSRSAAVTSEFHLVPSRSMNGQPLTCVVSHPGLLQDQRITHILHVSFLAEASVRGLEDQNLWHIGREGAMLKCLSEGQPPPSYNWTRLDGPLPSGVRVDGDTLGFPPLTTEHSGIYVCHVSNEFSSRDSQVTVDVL

ectodomain of human Nectin-4 (residues 1-333) (from UniProt Q96NY8 32-333) (receptor)
Ka [1]: 397000 M⁻¹
Kd [1]: 948 nM
Ka [2]: 1.05e+06 M⁻¹
Kd [2]: 2520 nM
Ka [3]: 1.5e+06 M⁻¹
Kd [3]: 666 nM

ectodomain of dog Nectin-4 (residues 1-332) (receptor)
Ka [1]: 396000 M⁻¹
Kd [1]: 2530 nM
Ka [2]: 1.06e+06 M⁻¹
Kd [2]: 942 nM
Ka [3]: 950000 M⁻¹
Kd [3]: 1050 nM
